# In the DeepSol protein solubility set:
# Assay: soluble on expression in E. coli; label from the status in PepcDB or PDB records
row,Sequence,soluble on expression in E. coli
1,MEPVRIGGPVGAGKTMLVEKLTRAMHRRFSIAVITNDIYTKEDAQFLIKHSVLPEDRIIGVETGGCPHTAIREDASMNFAAIDELKRRHPDVELILIESGGDNLAATFSPELVDFSIYVIDVAQGEKIPRKGGQGMIKSDLLVINKIDLAPYVGASLEVMERDAKAVRGAKPVIFTNLKEEIGLFDVVDWIEKQVLLAGLEE,not soluble
2,MEQHPIKINKVQIRNLQIEDYAQLSQSFTRVYSDGSDVFWTHAQIKKLISIFPEGQIVTVVDDKIVGCALSIILDYDKVKNDHTYAQVTGKETFNTHNPEGNILYGIEVFIHPGYRGLRLARRMYEYRKELCETLNLKAIMFGGRIPNYHKYADKMRPKEYIARVRQREIYDPVLTFQLSNDFHVRKVMTNYLPNDEESKHYACLLQWDNIYYQPPTQEYINPKTTVRVGLVQWQMRSYKTLDDLFEQVEFFVDAVSDYKSDFVLFPEYFNAPLMSKFNDKGESQAIRGLAKYTDEIRDRFINLAISYNINIITGSMPYVKEDGLLYNVGFLCRRDGTYEMYEKMHVTPDEIKSWGLSGGKLLQTFDTDCAKVGVLICYDVEFPELSRLMADQGMQILFVPFLTDTQNAYSRVRVCAQARAIENECFVVIAGCVGNLPRVHNMDIQYAQSGVFTPCDFAFPTDGKRAEATPNTEMILVSDVDLDLLNALHTYGSVRNLKDRRNDVYEVRFKK,not soluble
3,MEQIGAALQQTLEPDAAIRKRGEEALRSLQSNPGYIIQILQLVVNEQQQIAPQIRIAAAVALKNFVKRNWGPAPEVEMGQEDEEQFRSMLLEAMFNTKSNVQEILSNALYLIAQRDFPEKWPDLVPYLSKFLNGADLNHLVASLASMEQIFRKFRFESKSAELWKELKKCLLSTQEPLTLLLRNMMEVGQRKDQLGADEIAQWLRVLLLIAKVYHSLCSQEIPEYFEDHLKDWMPHFLHLVQIDAPTQTSNSGEPTTLDELKHEICEIFTLYSQRYEEEISEFVPDIILAVWNLLKSTGPDTRYDTMVCAALEFLSMVSQRQYYEGHFTGEGVLKTLAENVCVQNLLLRQQDMELFEDEPLDYMKRDIEGTDVGTRRRGAIDLARGLCRRFEAQMLPCLGEIVQNLLGSGDWIKIDIVYSLITAIAVKTETAKSGVTATNPLVDINDFFITQVATHLNADVNQTPILKADALKFAVTFRKQLAPEHLMTAIKSADALLSSNTPILHKYAAYAIEKILLADSNKIFSAQNLPVSSILQNLVTAFDKDAKAQNSPYLIKAILRIIVILDDDTIRHADAIAVKLAQLVESATKNPADSVHTHFLFETICVLITKTRTIGASLDAQLLPLIEVIFREDLEDLIPYALQITGVLVSSCIARNSSIDQFSPFLPFLLSERLWARSANVPAALSVLEVILSVNAQRVVSENSGLILSHLARLLGSKTLDQYGFQLAATILPSIEHFEGSAMTFVLNTMFRRVQSSKTPKFMKLFIVFLCRFTIARSAQDLVQSCENIQTGMFGMLIEKVVCIDLPGLKQTTTGPEKRIIAIGMGNLLADVTQQLVGQYGILSYEVAMLLEAASASDRAVLSPEEEQASMYNAEGEFVNPFCRLSYAPKQPPVAANIANHKAYFAQAVLVRGPGNCPETLRSVPPEIVTYLQSIQQ,not soluble
4,MEQLKCHVKQYAWGKYGEESEVARLFADGHESFQIDQKTPYAELWMGTHPDGPAQLKKCSTKLSTYLAKNPSPLTNNNSAKNIHLPFIMKVMSIRTTLSLQVHPTKEQARRLHEKDPIHYPDRNHKPELAYALTRFELLCGFRPAREILQNLQTFPSFRLLFGGDTYAKPLEDCIQQMKDLNSVDQKSTEFKDSRKYLEDCFRFMMVPERNDVHDLIAKLLSELDNGLRGAVEEVTVGVIRKMSVDFPNDIGIFSPLFLNHMILEPGQCCYYAAEELHAYLSGECVECVGCSNNTIRAAMTPKYIDRDALCSVLNYKMTEQKDYLVPENKLTECVDMYAPDCKDFQLHRIRVGTHQTVEEMMIPTLDCASIFVVVSGKGTLEEATIDNQLIGQYEVKRGDIFYIPPKHNIRFSSCSEPLEGYRTFSYEMGPDHDTRLVTPVQNAVPTITEKMFKLDADMEEAITAVV,not soluble
5,MEQQKKTTIVLFSGDYDKAMAAYIIANGAAAYDQEVTIFHTFWGLNALRKDEYVNVKKTFIEKVFGRMMPRGADKMGLSKMNFAGMGPKMIKGIMKKHNTMPLPDLIDLAKEQGIKLVACQMTVDLLGLKEEEIMEGVEFAGVGAYLADASDGNVNLFI,not soluble
6,MEQRTAEWFQARLGKVTASNIYNVLSKTAKGTPTSKYEEYKIKLMTERLTEEISQSYLTPAMQWGIEHEEDALKEYAIIYDTEVIKCGFIQHPTIEMAGASPDGLIGEEGLVEVKCPHSTKHLRFYMDGTIKPEYKAQMQFQMACTGRQWCDFVSYDPHFVGRSLRLRMKIKRIHRDEKQIEQINQAVEIFLEEIEQEMKQILTQAA,not soluble
7,MEQSVANLVDMRDVSFTRGNRCIFDNISLTVPRGKITAIMGPSGIGKTTLLRLIGGQIAPDHGEILFDGENIPAMSRSRLYTVRKRMSMLFQSGALFTDMNVFDNVAYPLREHTQLPAPLLHSTVMMKLEAVGLRGAAKLMPSELSGGMARRAALARAIALEPDLIMFDEPFVGQDPITMGVLVKLISELNSALGVTCVVVSHDVPEVLSIADHAWILADKKIVAHGSAQALQANPDPRVRQFLDGIADGPVPFRYPAGDYHADLLPGS,not soluble
8,MEREKLELPENGKKLLLHSCCAPCSGEVMEAIVASGIDFSIFFYNPNIHPRKEYDLRKDENIRFAEKHGIPFIDADYDMDDWFKRAKGMEMEPERGIRCTMCFDMRFERTALYAYENGFDVISSSLGISRWKNMDQINDSGVRAAAQYPGITYWTYNWRKKGGSARMLEISKREKFYMQEYCGCAYSLRDTNKWRVEHGREKIRIGEKYYGDVTE,not soluble
9,MERITVTLGERSYPITIAAGLFNEPASFLPLKSGDQVMLVTNETLAPLYLDKVRGVLERAGVNVDSVILPDGEQYKSLTVLDTVFTALLKKPHGRDTTLVALGGGVIGDLTGFAAASYQRGVRFIQVPTTLLSQVDSSVGGKTAVNHPLGKNMIGAFYQPASVVVDLDCLKTLPARELTSGLAEVIKYGIILDADFFTWLEGNLDALLRLDGPAMAYCIRRCCELKAEVVAADEREAGLRALLNLGHTFGHAIEAEMGYGNWLHGEAVAAGIVMAARASERLGQFSSADTQRIIALLERAGLPVNGPCEMSAQDYLPHMLRDKKVLAGELRLVLPLAIGKSEVRGGVSHEVVLSAIADCQQA,not soluble
10,MERSRDFLLQAKRDLEQARLSLREGFFEWAAFAAQQAAEKAVKAVFQRLGAVAWGHSVAGLLEELAQKLPVPEALLDAASELDKAYIPSRYPDALPEGAPFQRYRRGEAERLLGHAEAVYAYCEGVLSQMDEGGAPPPHRGGA,soluble
11,MERVNVVGAGLAGSEAAWTLLRLGVPVRLFEMRPKRMTPAHGTDRFAEIVCSNSLGGEGETNAKGLLQAEMRRAGSLVMEAADLARVPAGGALAVDREEFSGYITERLTGHPLLEVVREEVREIPPGITVLATGPLTSEALAEALKRRFGDHFLAYYDAASPIVLYESIDLTKCFRAGRYGQSADYLNCPMTEEEYRRFHQALLEAQRHTPHDWEKLEFFEACVPVEELARRGYQTLLFGPMKPVGLVDPRTGKEPFAVVQLRQEDKAGRMWSLVGFQTGLKWPEQKRLIQMIPGLENAEIVRYGVMHRNTYLNAPRLLGETLEFREAEGLYAAGVLAGVEGYLESAATGFLAGLNAARKALGLPPVAPPEESMLGGLVRYLATANPEGFQPMYANWGLVPPVEGRMGKKEKRQAMYRRGLEAFSAWLSGLNPPLPRPEAALV,soluble
12,MERVTRKVQVTGGSTYIISLPPEWIKRNNIGKGSEVSVIDQGSDLVVTAPENSEPEITKKITLPGSYTGKPLQRLLTSTYISGFDTLVVVSKDKMTAEMRDDIKRFAKVVMGIEVIEETSRSIVLQNVLNASTFPLQKAIRRMSLNVSTMIEDTIKAIQDEDDDLVENIILRDDEVDRYQWYIYREVKIRCRDDRSNVYILVLSRILERIADHAVNICQAIKNRKGIKGKEKMVENLAYSKDVYNQAMETFYSKNFGEIDGIINRKSEITSRKYELLKILSYDSVLSSVAEEISRIGLYGTDIAELAMDLIMSDKDEFSV,not soluble
13,MERYPPIADHGLVGDLQTAALVSSQGVIDWFAAPRFDSPSIFASLLDHDGGGHFLLAPEHPEGTWRQLYYPDTGVVVTRFMSPDGVGEIIDYMPVLPGPTASDRHSLVRIVRSVRGTVRFRLVCRPRFDYLEHHHHHH,not soluble
